Here are results for 1 molecule from patent publication US11066482B2, “Specific plasmin inactivation by anticatalytic antibody” (priority 2017, dated 2021).

Test [1] concerns the target T1, plasmin activity in bovine plasma (Bos taurus, UniProt P06868).
T1 construct: from tissue; host or cells: bovine plasma
As to the kind of experiment: Plasmin activity in plasma after urokinase, S2251. The test is classed as biochemical. The settings on record: Pi 1 uM. As for the experimental part: (§1) FIGS. 3A-3D show binding and inhibitory specificity of Pi. […] The effect of various concentrations of Pi (0-2000 nM) on clots formed with human, baboon or African green monkey plasmas. Clot lysis was measured in microtiter plates after addition of urokinase as described in Methods.
(§2) Specificity of plasmin inhibition. The effect of the Pi on different animal plasmins was examined after addition of the plasminogen activator urokinase. Various animal plasmas (5 ul) were mixed in microtiter plates in the presence of Pi (1 uM, 10 ul) or buffer, S2251 (10 ul, 0.5 mM final), urokinase (100 or 200 U) in a total volume of 100 ul with PBS. The plates were incubated at 37 deg. C. and the rate of plasmin generation was monitored by substrate cleavage at 405 nm for 1 hr.

Test [2] concerns plasmin activity in cat plasma. In words: Plasmin activity in plasma after urokinase, S2251. The class given is biochemical. As to conditions: Pi 1 uM. As for the experimental part:
as §1, §2

Test [3] has as its target T2, plasmin activity in dog plasma (Canis lupus familiaris, UniProt P80009).
T2 construct: from tissue; host or cells: dog plasma
As to the kind of experiment: Plasmin activity in plasma after urokinase, S2251. The test is classed as biochemical. As to conditions: Pi 1 uM. Here is the method: as §1, §2

In test [4] the test system is plasmin activity in gerbil plasma. As to the kind of experiment: Plasmin activity in plasma after urokinase, S2251. The test is classed as biochemical. The settings on record: Pi 1 uM. As for the experimental part:
as §1, §2

Test [5] concerns plasmin activity in guinea pig plasma. In words: Plasmin activity in plasma after urokinase, S2251. The test is classed as biochemical. As to conditions: Pi 1 uM. Here is the method: as §1, §2
The test system of test [6] is plasmin activity in hamster plasma. As to the kind of experiment: Plasmin activity in plasma after urokinase, S2251. The class given is biochemical. The settings on record: Pi 1 uM. Here is the method:
as §1, §2

For test [7], the target named is T3, plasmin activity in pig plasma (Sus scrofa, UniProt P06867).
T3 construct: from tissue; host or cells: pig plasma
T3 sequence (P06867 97-579 limits assumed): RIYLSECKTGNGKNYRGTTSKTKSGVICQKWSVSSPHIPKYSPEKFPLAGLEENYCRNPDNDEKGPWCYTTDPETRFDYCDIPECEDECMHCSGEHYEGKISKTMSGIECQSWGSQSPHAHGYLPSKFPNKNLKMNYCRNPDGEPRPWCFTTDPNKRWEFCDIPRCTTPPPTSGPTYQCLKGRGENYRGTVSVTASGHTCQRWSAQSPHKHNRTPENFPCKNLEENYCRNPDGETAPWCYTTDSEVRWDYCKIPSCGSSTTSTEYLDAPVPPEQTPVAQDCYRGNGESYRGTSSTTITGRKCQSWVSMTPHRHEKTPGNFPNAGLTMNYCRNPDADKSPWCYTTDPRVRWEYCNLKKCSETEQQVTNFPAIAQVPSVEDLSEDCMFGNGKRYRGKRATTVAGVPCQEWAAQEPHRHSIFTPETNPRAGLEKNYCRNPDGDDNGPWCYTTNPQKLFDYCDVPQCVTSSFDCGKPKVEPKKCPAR
T3 sequence (P06867 580-809 limits assumed): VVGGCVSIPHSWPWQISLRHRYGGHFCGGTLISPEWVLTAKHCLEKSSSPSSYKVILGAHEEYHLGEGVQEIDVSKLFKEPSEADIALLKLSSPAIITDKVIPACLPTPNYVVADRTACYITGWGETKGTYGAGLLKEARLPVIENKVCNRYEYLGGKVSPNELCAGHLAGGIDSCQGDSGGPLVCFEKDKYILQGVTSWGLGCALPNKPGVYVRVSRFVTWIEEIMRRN
As to the kind of experiment: Plasmin activity in plasma after urokinase, S2251. The settings on record: Pi 1 uM. The test is classed as biochemical. As for the experimental part:
as §1, §2

Test [8] concerns plasmin activity in rabbit plasma. As to the kind of experiment: Plasmin activity in plasma after urokinase, S2251. The test is classed as biochemical. As to conditions: Pi 1 uM. As for the experimental part:
as §1, §2

The target of test [9] is T4, plasmin activity in rat plasma (Rattus norvegicus, UniProt Q01177).
T4 construct: from tissue; host or cells: rat plasma
T4 sequence (Q01177 97-581 limits assumed): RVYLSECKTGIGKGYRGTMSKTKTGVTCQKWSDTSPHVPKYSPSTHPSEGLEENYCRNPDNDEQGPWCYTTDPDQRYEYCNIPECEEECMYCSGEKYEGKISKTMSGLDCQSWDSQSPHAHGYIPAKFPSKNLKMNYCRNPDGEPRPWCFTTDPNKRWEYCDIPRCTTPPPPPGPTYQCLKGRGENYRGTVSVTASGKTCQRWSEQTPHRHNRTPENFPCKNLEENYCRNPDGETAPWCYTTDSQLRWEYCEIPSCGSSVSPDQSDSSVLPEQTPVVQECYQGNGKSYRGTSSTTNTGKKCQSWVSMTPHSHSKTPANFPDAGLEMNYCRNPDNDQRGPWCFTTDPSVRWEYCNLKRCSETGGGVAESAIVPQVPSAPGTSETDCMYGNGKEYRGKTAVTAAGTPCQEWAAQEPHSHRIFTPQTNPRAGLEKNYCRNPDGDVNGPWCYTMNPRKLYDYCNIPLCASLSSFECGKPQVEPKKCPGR
T4 sequence (Q01177 582-812 limits assumed): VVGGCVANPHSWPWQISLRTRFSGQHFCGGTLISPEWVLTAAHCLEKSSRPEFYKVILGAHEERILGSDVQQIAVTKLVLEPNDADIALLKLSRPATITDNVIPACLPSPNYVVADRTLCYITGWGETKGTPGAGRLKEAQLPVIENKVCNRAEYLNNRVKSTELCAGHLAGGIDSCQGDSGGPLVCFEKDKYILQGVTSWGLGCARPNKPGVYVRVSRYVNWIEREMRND
As to the kind of experiment: Plasmin activity in plasma after urokinase, S2251. The class given is biochemical. As to conditions: Pi 1 uM. As for the experimental part: as §1, §2

For the next test, the target named is T5, plasmin in human plasma (Homo sapiens, UniProt P00747).
T5 construct: from tissue; host or cells: human plasma
T5 sequence (P00747 97-580 limits assumed): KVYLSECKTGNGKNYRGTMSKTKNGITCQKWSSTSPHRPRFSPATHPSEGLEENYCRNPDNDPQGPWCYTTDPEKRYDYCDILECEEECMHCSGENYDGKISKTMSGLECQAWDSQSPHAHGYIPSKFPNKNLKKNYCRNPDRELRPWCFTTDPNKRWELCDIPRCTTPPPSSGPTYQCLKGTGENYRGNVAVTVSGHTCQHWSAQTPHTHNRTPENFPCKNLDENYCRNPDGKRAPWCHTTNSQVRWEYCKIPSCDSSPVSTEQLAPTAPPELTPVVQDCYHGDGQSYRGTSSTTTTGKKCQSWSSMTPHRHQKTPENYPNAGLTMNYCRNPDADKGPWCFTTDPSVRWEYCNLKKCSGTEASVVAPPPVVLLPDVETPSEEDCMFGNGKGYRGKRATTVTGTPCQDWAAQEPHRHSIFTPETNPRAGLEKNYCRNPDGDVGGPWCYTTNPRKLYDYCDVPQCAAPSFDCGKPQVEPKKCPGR
T5 sequence (P00747 581-810 limits assumed): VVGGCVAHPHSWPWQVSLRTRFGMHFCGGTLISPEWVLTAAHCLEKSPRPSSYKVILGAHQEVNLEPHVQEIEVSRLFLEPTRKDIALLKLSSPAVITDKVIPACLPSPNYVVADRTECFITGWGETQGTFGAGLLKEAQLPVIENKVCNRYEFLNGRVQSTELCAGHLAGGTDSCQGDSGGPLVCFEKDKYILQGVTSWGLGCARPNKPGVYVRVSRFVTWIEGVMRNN
In words: Plasmin activity in plasma after urokinase, S2251. The test is classed as biochemical. The settings on record: Pi 1 uM. Here is the method:
as §1, §2

The test system of the next test is baboon clots. In words: Primate clot lysis, microtiter plate, urokinase. The test is classed as biochemical. As to conditions: baboon plasma, Pi 0-2000 nM, urokinase 10 U. As for the experimental part:
as §1
The ability of Pi to inhibit primate clot lysis was also examined in a microtiter plate assay. Human, baboon or African green monkey plasma (5 ul) was added to 96-well plates in the presence of various concentrations of Pi (0-2000 nM), CaCl2 (2 mM), thrombin (0.125 U/ml) and human fibrinogen (2 mg/ml) and urokinase (10 U). The wells were incubated at 37° C., clot lysis was recorded kinetically for 120 min. and the time required for complete clot lysis was recorded.

The subject of test [10] is human clot lysis initiated by r-tPA. As to the kind of experiment: Clot lysis assay of Pi, MAb 340 and control MAb with r-tPA. The class given is biochemical. As to conditions: human plasma, MAb 20 ug, r-tPA 2 nm. Here is the method:
as §1
The comparative effects of Pi, MAb 340 and a control MAb (anti-digoxin) were examined in a clot lysis assay in microtiter plates. Human plasma (50 ul) was mixed with the MAbs (20 ug) in duplicate and then clotted with CaCl2 and thrombin, with or without recombinant (r)-tPA (2 nm). Clot dissolution at 37 deg. C. was monitored at 405 nm for 120 min. The time required to fully dissolve the clots during the 120 min. observation period was recorded.

In test [11] the target is plasmin-mediated cleavage of factor V (Homo sapiens, UniProt P00747). In words: Factor V cleavage by plasmin, SDS-PAGE. As to conditions: EACA 1 mM or Pi 5 ug, 1 hr RT. The test is classed as biochemical. As for the experimental part:
FIGS. 4A-4D show comparative inhibition of factor V cleavage and human clot fibrinolysis (dissolution) by Pi, EACA and a2AP. […] The relative migration of molecular weight standards is shown (kDa). […] Human plasma was clotted with CaCl2 (10 mM) and thrombin (1 U/ml) in the presence of trace amounts of 1251 fibrinogen for 1 h at 37 deg. C. After washing in 1 ml of TBS pH 7.4, tPA (5 nM) was added in the presence of various amounts of Pi (62.5 to 1000 nM), EACA (0.125 mM to 2 mM) or no inhibitor. After 2.5 h the amount of fibrinolysis was determined by measuring the amount of 125I-fibrin dissolved in the supernatant. Means of duplicate observations are shown. […] Clots were formed as above in the presence of human plasminogen (2 uM) and a2AP (1 uM) or Pi (1 uM) and various amounts of tPA (0-10 nM). Clot dissolution was monitored in duplicate over 2 h in microtiter plate wells at A405 nm. […] Human plasma clots were mixed with various concentrations of Pi IgG, Pi Fab and chimeric Pi Fab (25 nM-400 nM) and plasmin was activated by urokinase. The amount of clot lysis was determined as described in Methods.
Factor V cleavage. Human factor V (2 ug, IHFV, Innovative Research) was mixed with plasmin (0.05 ug) for 1 hr at RT in the presence of EACA (1 mM), Pi (5 ug) or a control monoclonal antibody (digoxin, 5 ug). […] Protein bands were detected by staining with Coomassie blue dye.

In the next test the test system is fibrinolytic bleeding. In words: Fibrinolytic bleeding assay in vivo (humanized tail bleeding model). Further details: species or system mice. As to conditions: Pi 100 nmole/kg intravenously, mice given human plasminogen and plasminogen activator. As for the experimental part: Anesthetized mice were treated in a randomized, blinded fashion with saline (Control), Pi (100 nmole/kg) or EACA (510 micromole/kg) intravenously. Human plasminogen (100 nmole/kg) and plasminogen activator (80,000 IU/kg) were given over 60 min. Tail bleeding was initiated 40 min. after the infusion. Tails were pre-warmed for 5 mins in 3 mL of 37° C. saline and bleeding was monitored as described.36,37 N=5-6, Means±SE are shown. *p<0.05, **p<0.01; ns, not significant. Kruskal Wallis one way ANOVA, Dunn's corrections.
Fibrinolytic bleeding assays in vivo. Anesthetized mice were treated in a randomized, blinded fashion with saline (Control), Pi (100 nmole/kg) or EACA (510 micromole/kg). Human plasminogen (100 nmole/kg) and plasminogen activator (80,000 IU/kg) were given over 60 min. Tail bleeding started 40 min. after the infusion. Tails were pre-warmed for 5 mins in 3 mL of 37° C. saline as described.(27, 28).
Suppression of fibrinolytic bleeding in vivo. The potential utility of the Pi for suppression of fibrinolytic bleeding was examined in vivo in randomized, blinded studies of surgical arterial and venous hemorrhage.

Sequence of plasmin-mediated cleavage of factor V (P00747 97-580 limits assumed): as the sequence (P00747 97-580 limits assumed) above
Sequence of plasmin-mediated cleavage of factor V (P00747 581-810 limits assumed): as the sequence (P00747 581-810 limits assumed) above
T1 sequence (P06868 104-583 limits assumed): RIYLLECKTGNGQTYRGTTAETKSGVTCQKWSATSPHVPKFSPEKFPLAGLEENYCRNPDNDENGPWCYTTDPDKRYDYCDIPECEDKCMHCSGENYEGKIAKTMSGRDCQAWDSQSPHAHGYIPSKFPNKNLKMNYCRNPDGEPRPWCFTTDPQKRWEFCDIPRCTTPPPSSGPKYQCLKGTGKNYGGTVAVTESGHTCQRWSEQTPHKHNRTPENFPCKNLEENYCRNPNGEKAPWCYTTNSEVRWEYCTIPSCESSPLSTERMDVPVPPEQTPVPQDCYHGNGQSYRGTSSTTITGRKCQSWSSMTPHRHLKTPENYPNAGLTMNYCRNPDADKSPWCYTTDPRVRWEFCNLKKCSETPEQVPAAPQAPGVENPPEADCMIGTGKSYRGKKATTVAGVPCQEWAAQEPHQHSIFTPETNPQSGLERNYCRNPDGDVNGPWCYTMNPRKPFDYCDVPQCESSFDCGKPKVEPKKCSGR
T1 sequence (P06868 584-812 limits assumed): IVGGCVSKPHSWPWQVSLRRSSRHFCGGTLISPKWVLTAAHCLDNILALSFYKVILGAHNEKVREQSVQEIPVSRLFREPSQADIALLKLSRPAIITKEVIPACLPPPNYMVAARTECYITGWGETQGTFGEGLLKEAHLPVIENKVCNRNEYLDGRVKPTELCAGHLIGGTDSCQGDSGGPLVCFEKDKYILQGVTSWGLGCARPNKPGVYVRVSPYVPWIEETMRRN
T2 sequence (P80009 with tags, fused parts or gaps): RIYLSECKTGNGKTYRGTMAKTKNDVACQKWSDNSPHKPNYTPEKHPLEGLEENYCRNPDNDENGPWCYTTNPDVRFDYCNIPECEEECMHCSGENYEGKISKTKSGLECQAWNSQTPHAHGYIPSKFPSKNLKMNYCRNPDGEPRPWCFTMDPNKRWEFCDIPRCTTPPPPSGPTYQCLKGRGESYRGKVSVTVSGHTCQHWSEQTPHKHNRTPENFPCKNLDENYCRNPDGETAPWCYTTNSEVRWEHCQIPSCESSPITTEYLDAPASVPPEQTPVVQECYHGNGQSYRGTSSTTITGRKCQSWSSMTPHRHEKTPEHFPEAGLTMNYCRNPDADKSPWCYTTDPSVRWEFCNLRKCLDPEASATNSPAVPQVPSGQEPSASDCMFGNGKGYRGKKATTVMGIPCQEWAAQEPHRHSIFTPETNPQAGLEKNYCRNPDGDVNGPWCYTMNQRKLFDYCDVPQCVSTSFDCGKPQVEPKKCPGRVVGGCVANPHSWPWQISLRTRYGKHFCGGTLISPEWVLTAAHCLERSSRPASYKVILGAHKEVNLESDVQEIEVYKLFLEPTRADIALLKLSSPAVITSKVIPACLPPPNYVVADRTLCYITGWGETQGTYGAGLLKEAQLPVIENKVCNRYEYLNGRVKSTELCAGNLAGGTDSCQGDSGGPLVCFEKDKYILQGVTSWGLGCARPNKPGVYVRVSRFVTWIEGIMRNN

B1: Pi: mouse monoclonal antibody plasmin inhibitor binding plasmin protease domain loops 4 and 5; LC SEQ ID NO:1, HC SEQ ID NO:4 (antibody)
heavy: EVKLLESGGGLVQPGGSLKLSCAASGFDFSRYWMSWVRQAPGKGLEWIGEINPDSSTINYTPSLKDKFIISRDNAKNSLYLQMSKVRSEDTALYYCASYCGYSYDALDCWGQGTSVTVSSAKTTPPSVYPLAPGSAAQTNSMVTLGCLVKGYFPEPVTVTWNSGSLSSGVHTFPAVLQSDLYTLSSSVTVPSSTWPSETVTCNVAHPASSTKVDKKIVPRDCGCKPCICTVPEVSSVFIFPPKPKDVLTITLTPKVTCVVVDISKDDPEVQFSWFVDDVEVHTAQTQPREEQFNSTFRSVSELPIMHQDWLNGKEFKCRVNSVAFPAPIEKTISKTKGRPKAPQVYTIPPPKEQMAKDKVSLTCMITDFFPEDITVEWQWNGQPAENYKNTQPIMDTDGSYFVYGKLNVQKSNWEAGNTFTCSVLHEGLHNHHTEKSLSHSPGK
light: DIQMTQSPSSLSASLGGKVSITCKASQDINKYISWYQHKPGKGPRLLIHYTSTLQPGIPSRFSGSGSGRDYSFSISNLEPEDIATYYCLQYDNLYTFGGGTKLEIKRADAAPTVSIFPPSSEQLTSGGASVVCFLNNFYPKDINVKWKIDGSERQNGVLNSWTDQDSKDSTYSMSSTLTLTKDEYERHNSYTCEATHKTSTSPIVKSFNWNEC
Take B1: the “effect on plasmin activity generated by urokinase” value in test [1], in test [2], in test [3], in [4], in test [5] and in [6] was “did not inhibit plasmin activity” throughout. Further, the “effect on plasmin activity generated by urokinase” value is reported as “did not inhibit plasmin activity” in test [7], “did not inhibit plasmin activity” in test [8], “did not inhibit plasmin activity” in test [9] and “suppressed plasmin” with plasmin in human plasma. For the same molecule, in the test with baboon clots, the “effect on clot lysis” value is reported as “dose-related suppression”. Besides, the “clot dissolution during 120 min” value in test [10] is “did not significantly dissolve”. Besides, in test [11], the “effect on Factor V cleavage by plasmin” value was “Factor V cleavage was attenuated”. Also, the “suppression of bleeding time vs controls” value in the test with fibrinolytic bleeding is reported as greater than 80%. In addition, in the test with fibrinolytic bleeding, the “suppression of blood loss vs controls” value was greater than 85%.
